{
  "source": "patent US20030095962A1",
  "about": "“Chimeric cell-surface receptors that undergo antigen-induced association” (priority 1997, published 2003)",
  "molecular_target": "hen egg lysozyme (hen) (UniProt P00698)",
  "sequence (P00698 19-147)": "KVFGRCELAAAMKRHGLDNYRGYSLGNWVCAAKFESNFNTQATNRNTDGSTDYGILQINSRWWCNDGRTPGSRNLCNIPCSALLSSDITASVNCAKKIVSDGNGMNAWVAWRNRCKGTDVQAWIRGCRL",
  "assay": "cell-based or functional assay",
  "data": [
    {"substance": "pair of chimeric receptor polypeptides: HyHEL-10 VH fused to mouse erythropoietin receptor (pME-VHER) and HyHEL-10 VL fused to mouse erythropoietin receptor (pME-VLER), expressed on Ba/F3 cells (from UniProt P14753 146-507; P14753 146-507)", "values": [
      {"measurement": "cell proliferation of Clone G8 cultured with different constant amounts of HEL over a 5-day period (times the rate)", "value": "> 5"},
      {"measurement": "lowest HEL concentration giving accelerated cell growth", "value": 5, "unit": "ng/mL"}
    ]}
  ]
}
